The nanobody polyreactivity screen of Harvey et al. (2022)

Assay: yeast display, Sf9 membrane polyspecificity reagent, FACS + sequencing; frameworks hold sequencing errors
Procedure, shortened: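 Genes from sorted yeast were amplified by colony PCR, read by MiSeq 2 × 250 sequencing and filtered on CDR length. These cells carried a synthetic nanobody library in Saccharomyces cerevisiae BJ5465 and were sorted by FACS into low and high (top ~1%) gates on anti-HA and streptavidin fluorescence. Polyreactivity is labelled according to the gate of origin.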

Question: With “QVQLVESGGGLVQAGGSLRLSCAASGSIFSSYAMGWYRQAPGKERELVAAISQSGGDTYYADSVKGRFTISRDIAKNTVYLQMNSLKPEDTAVYYCAACVWYYPMDYWGQGTQGTVSS” as the sequence, how does the “polyreactivity (PSR sort gate)” value read?
Answer: low polyreactivity

Question: For “QVKLVESGGGLVKAGGSLRLSCAASGSISDWYAMGWYIQAPGKERELVAAISNSDGSTYYADSEKGRFTISRDNAKNTVYLQMNSLQPEYTAVYYCNASDAHEDRKSEYWGQGTQVTVSS”, which “polyreactivity (PSR sort gate)” value is on record?
Answer: low polyreactivity

Question: For “QVQLVESGGGLVQAGGSLRLSCAASGRIFKVYAMGWYIQAPGKERELVAVISRGGSTYYADSVKGRFTISRDNAKNTVYLQMNSLKPEDTAVYYCAARLTYTGGQGAYDYWGQGTQVTVSS”, which “polyreactivity (PSR sort gate)” value is on record?
Answer: high polyreactivity

Question: Which “polyreactivity (PSR sort gate)” value does the source give for “QVQLVESGGGLVQAGGSLRLSCAASGFTFPWYAMGWYRQAPGKERELVASISYRGDSTYYADSVKGRFTISRDNAKNTVYLQMNSLKPEDTAVYYCNTRLASYYLPGFDYWGQGTQVTVSS” here?
Answer: low polyreactivity

Question: For “QVHLVESGGGLVQAGGSLRLRCAASGGTSRSYAKGWYRPAPGKERELVAAISWRGGRTYYADSVKGRFTISRDNAKNTVYFQMNRLKPEDTAVYDCAARLPGYYGIGDYWGLGTQVTVSS”, which “polyreactivity (PSR sort gate)” value is on record?
Answer: high polyreactivity

Question: With “QVQLVESGGGLVQAGGSLRLSCADSGSIFDGNAMGWYRQAPGKERALVAAISRRGGSTYYADSVKGRFTISRDKAKNTVYLQMNSLKPEDTAVYYCNAYLSYFDGNYWGQGTQVTVSS” as the sequence, how does the “polyreactivity (PSR sort gate)” value read?
Answer: high polyreactivity

Question: For “QVQLVESGGGLVQAGGSLRLSCAASGRIFSNYAMGWYRQAPGKERELVAAISYSGDSTYYADSVKGRFTISRDNAKNTVYLQMNSLKPEDTAVYYCAAVRSYRRYPQSSDLYYYWGQGTQVTVSS”, which “polyreactivity (PSR sort gate)” value is on record?
Answer: high polyreactivity

Question: Which “polyreactivity (PSR sort gate)” value does the source give for “QVQLEESGGGLVQAGGSLRLSCAASGFTFSGYDMGWYRQAPGKERELVAGISSGGVSTTYADSVKGRFTISRDNAKNTVYLQMNSLKPEDTAVYYCNAEWTSFDWGQGTQVTVSS” here?
Answer: low polyreactivity

Question: Which “polyreactivity (PSR sort gate)” value does the source give for “QVQLVESGGGLVQAGGSLRLSCAASGSIFFGNDKGWYRQAPGKERELVAGISNGGRTNYADSVKGRFTISRDNAKNTVYLQMNSLKPEDTAVYYCAKHPVYIYWSRVLVGYYSWGQGTQVTVSS” here?
Answer: low polyreactivity

Question: With “QVQLVESGGGLVQAGGSHRLSCAASGRIFVGYTMGWYRQAPGKERELVAAITSGGSTYYADSVKGRFTISRDNAKNTVYLQMNSLNPEDTAVYYCNAAYQFDSYHLGGYGYEYWGQGTQVTVSS” as the sequence, how does the “polyreactivity (PSR sort gate)” value read?
Answer: low polyreactivity

Question: For “QVQLVESGGGLVQAGGSLRLSCAASGRIFERYAMGWYRQAPGKERELVAGISISGGGTYYADSVKGRFTISRDNAKNTVYLEMNSLKPEDTAVYYCAATFPREDYGYWGQGTQVTVSS”, which “polyreactivity (PSR sort gate)” value is on record?
Answer: low polyreactivity

Question: For “QVQLVESGGGLVQAGGSLRLSCAASGSIFYGYAMGWYRQAPGKERELVAAISWSGTSTYYADSVKGRFTISRDNAKNTVYLQMNSLKPEDTAVYYCAADQFQGNSGFEYWGQGTQVTVSS”, which “polyreactivity (PSR sort gate)” value is on record?
Answer: low polyreactivity

Question: For “QVQLVESAGGLVQAGGSLRLSCAASGRTFDAYAMGWYRQAPGKERELVATITSGGGTYYADSVKGRFTISRDNAKNTVYLLMNSLTPEDTAVYYCNKRYVVSRKYDYWGQGTQVTVSS”, which “polyreactivity (PSR sort gate)” value is on record?
Answer: low polyreactivity

Question: With “QVQLVESGGGLVQAGGSLRLSCAASGRIFTTYAMGWYRQAPGKERELVAAISRSGGSTYYADSVKGRFTISRDNAKNTVYLQMNSLKPEDTAVYYCAAVPTSNSFLSSFYYWGQGTQVTVSS” as the sequence, how does the “polyreactivity (PSR sort gate)” value read?
Answer: high polyreactivity

Question: With “QVQLEESGGALVQAGGSLRLSCAASGFTFYRNALGWNRQAPGQERELVGAITRGGSTTYADSVKGRFTISRDNAKNTVYLQMNRMKPEDTAVYYCAAPKYIWYRDLNYWGQGTQVTVSS” as the sequence, how does the “polyreactivity (PSR sort gate)” value read?
Answer: high polyreactivity

Question: For “QVKLVESGGGLVQAGRSLRLSFAASGSTFLYYGMGWYRQAPGKERELVATITWRGGRTYYADSVKGRFTISRDNAKNTVYLQMNSLKPEDTAVYYCAARVVGSYRKPYPYGLYYWGQGTQVTVSS”, which “polyreactivity (PSR sort gate)” value is on record?
Answer: high polyreactivity

Question: For “QVQLVESGGGLVQAGGSLRLSCAASGSIFAVYTMGWYRQAPGKERELVAAINWSGARTYYADSVKGRFTISRDNEKNTVYLQMNSLKPEDSAVYYCAAESRLGVAYIYWGQGTQVTVSS”, which “polyreactivity (PSR sort gate)” value is on record?
Answer: low polyreactivity

Question: For “QDQLVESGGGLVQAGGSLRLSCRASGFTFTHYAMGWSRKAPGKERELVAAIDRSGDSTYYADSVKGRFTISRDNAKNTVYLQMNSLKPEDTAVYYSAADLFDSLIWVYWTYVARFDYWGQGTQVTVSS”, which “polyreactivity (PSR sort gate)” value is on record?
Answer: low polyreactivity

Question: Which “polyreactivity (PSR sort gate)” value does the source give for “HVQLVESGGGLVQAGGSLRLSCAASGRTFPRYAMGWYRQAPGTERELVAAISVRAGITYYADSVKGRFTISRDNAKNTVYLQMNSLKPEDTAVYYCAKDLWTTSYDEGDYWGQGTQVTVSS” here?
Answer: low polyreactivity

Question: Which “polyreactivity (PSR sort gate)” value does the source give for “QVQLVESVGGLVQAGGSLRLSCPTSGRIFTYYAMGWYRQAPGKERELVAAINSRGGSTYYADSVKGRFTISRDNAKNTVYLQMNSLKPEDSAVYYCAAVGLYSRYAYWGQGTQVSVSS” here?
Answer: high polyreactivity

Question: With “QDQLVESGGGLVQAGGSLRLSCAASGFTIERYAMGWYRQAPGKERELVAVISTSGGSTYYADSVKGRFTISRDNGKNTVYLLMNSLKPEDTAVYYCAAPSVSQYSSKKYDYWGQGTQVTVSS” as the sequence, how does the “polyreactivity (PSR sort gate)” value read?
Answer: low polyreactivity

Question: For “QVQLVESGGGLVQAGCSLRLSCAAYGSIFSYNAMGWYRQAPGKERELVASISWSGGRTFYADSVKGRFTISRDNAKNTVYLQMNSLKPEDTAVYYCAFRHYSTYYSRFGYWGQGTKVTVSS”, which “polyreactivity (PSR sort gate)” value is on record?
Answer: high polyreactivity

Question: For “QVQLQESGGGLVQAGGSQRLSCAASGYIIYFQYMGWYRQAPGKEREFVAAISDGANTNYADSVKGRFTISRDNAKNTEYLQMNSLKPEDTAVYYCAVYADENYYYIYWGQGTQVTVSS”, which “polyreactivity (PSR sort gate)” value is on record?
Answer: low polyreactivity

Question: Which “polyreactivity (PSR sort gate)” value does the source give for “QVQLVESGGGLVQAGGSLRLSCAASGLTFSPYAMGWYRQAPGKERELVATITIGGSTKYADSVKGRFTISRDNAKNTVYLQMNSLKPEDPAVYYCAVRSGYVTRRYDYWGQGTQVTVSS” here?
Answer: low polyreactivity

Question: With “QVQLVESGGGLVQAGGSLRLSCAASGRIFAWYAMGWYRQSPGKESELVAAISDSGGSTYYADSVKGRFTISRDNAKNTVYLQMNSLKPEDTAVYYCAADQVVYSAYWSDHYDYWGQGTQVTVSS” as the sequence, how does the “polyreactivity (PSR sort gate)” value read?
Answer: low polyreactivity

Question: With “QVQLVESGGGLVQAGGSLRLSCAASGSIFTHYPMGWYRQAPGKERELVAAISRRGGSTYYADSVKGRFTISRDNAKNTVYLQMNSLKPEDTAVYYCAKSPDTAKEYDYWGQGTQVTVSS” as the sequence, how does the “polyreactivity (PSR sort gate)” value read?
Answer: high polyreactivity

Question: For “QVQLEESGGGLVQAGGSLRLSCAASGLTFAYNTMGWYRQAPGKEREFVASISSSGGNTYYADSVKGRFTISRDNAKNTVYLQMNSLKPEDTAVYYCAAKKKYHYVASYKRFEYWGQGTQVTVSS”, which “polyreactivity (PSR sort gate)” value is on record?
Answer: low polyreactivity

Question: Which “polyreactivity (PSR sort gate)” value does the source give for “QVQLVESGGGLVQAGGSLRISCAASGFIFRGNTMGWYRQAPGKERELVASITRGGGRTYYADSVKGRFTISRDNAKNTVYLQMNSLKPEDTAVYYCAARTRSDNSYHGGEYWGQGTQVTVSS” here?
Answer: high polyreactivity

Question: With “QVQLVESGGGLVQAGGSLRLSCAASGSTFGFNVMGWYRPAPGKERELVAAIRYRDGSTYYADSVKGRFTISRDNAKNTVYLQMNSLKPEDTAVYYCNTRITQVGDYIYDYWGQGTQVTVSS” as the sequence, how does the “polyreactivity (PSR sort gate)” value read?
Answer: low polyreactivity

Question: For “QVQLVESGGGLVQAGGSLRLSCAASGRIFSYNAMGWYRQAPGKERELVAAISSGGSTYYADSVKGRFTISRDNAKNTVYLQMNSLKPEDTAVYYCAADRRYYSDMYYWGQGTQVTVSS”, which “polyreactivity (PSR sort gate)” value is on record?
Answer: low polyreactivity

Question: With “QVQLVESGGGLVQAGGSLRLSCAASGRTFSFYDMGWYRQAPGKERELVAAINSGSSTYYADSVKGRFTISRDNANNTVYLQMNSLKPEDTEVYYCAAEPYFWWQNEYWGQGTQVTVSS” as the sequence, how does the “polyreactivity (PSR sort gate)” value read?
Answer: high polyreactivity

Question: For “QVQLVESGGGLVQAGGSLRLSCAASGSTIGVYAMGWYRQAPGKERELVAAITSGDSTNYADSVKGRFTISRDNAKNTVYLQMYSLKPEDTAVYYCNARQLYYWYYAYDYWGQGTQVTVST”, which “polyreactivity (PSR sort gate)” value is on record?
Answer: low polyreactivity

Question: With “QVQLVESGGGLVQAGGSLRLSCAASGSTAYVMGWYRQAPGKETELVAAISKSGGSTYYADSVKGRFTISRDNAKNTVYLQMNSLKPEDTAVYYCSALYPTTTAYRYGYWGQGTQVTVSS” as the sequence, how does the “polyreactivity (PSR sort gate)” value read?
Answer: high polyreactivity

Question: Which “polyreactivity (PSR sort gate)” value does the source give for “QVQHVESGVGLVQAGGSLRLSCAASGITFLDTVLGWYRHAPAKEWELVADINSIGTSTSYADSVKGRFTISRDNAKNTVYLQMISLKPEDTADYYCAATSYARLAYYYGGQGTQVTVSS” here?
Answer: low polyreactivity

Question: With “QVQLVESGGGLVHAGGSLRLSCAASGSIFSIYAMGWYRQAPGTERELVAAITKSGGSTYYADSVKGRFTISRDNAKNTVYLQMNSLKPEDTAVYYCAAEPQHYVGYYYWGQGNQVTVSS” as the sequence, how does the “polyreactivity (PSR sort gate)” value read?
Answer: high polyreactivity

Question: Which “polyreactivity (PSR sort gate)” value does the source give for “QVQLVESGGGLVQAGGSLRLSCAASGRTLSYYAMGWYRQAPGKERELVAAIRHSAGSTYYADSVKGRFTISRDTAKNTVYLQMNSLKPEDTAVYYCAKKYYGHRYPSIYDYWGQGTQVTVSS” here?
Answer: high polyreactivity

Question: For “QVQLVESGGGLVQAGGSLRLSCAASGSIFTSNVMAWYRQAPGKERELVAAITITGTTTYADSVKGRFTISRDNAKNTVYLQMNSLIPEDTAVYYCAKDPVELSPADWRADYDYWGQGTQVTVSS”, which “polyreactivity (PSR sort gate)” value is on record?
Answer: low polyreactivity

Question: For “QVQLVESGGGLVQAGGSIRLSCAASGSTSYIKVMGWYRQAPGKEREMVATISSSGGNTYYADSVKGRFTISRDNAKNTVYLQMNSLKPEDTAVYYCAAKVRVWYYRMDSWGQCTQVTVSS”, which “polyreactivity (PSR sort gate)” value is on record?
Answer: low polyreactivity

Question: For “QVQLVESGGGLVQAGGSLRLSCAASGSTFVRYAMGWYRQAPGKERELVAAISSGGSRTYYADSVKGRFTISRDNAKNTVYLQMNSLKPEDTAVYYCATVSTYYHYRRYDYWGQGTQVTVSS”, which “polyreactivity (PSR sort gate)” value is on record?
Answer: high polyreactivity

Question: With “QVQLVESGGGLVQAGGSLRLSCAASGFTFRYYVMGWYRQAPGKERELVAAITSGGRTHYADSVKGRFTISRDNAKNTDYLQMNSLKPEDTAVYYCAVRTQFAGLHYYYGYWGQGTQVTVSS” as the sequence, how does the “polyreactivity (PSR sort gate)” value read?
Answer: high polyreactivity

Question: With “QVKLVESAGGLVQAGGSLRLSCPASGIIFGLYTMGWYRQAPGKERELVAAISDSGGRTYYADSVKGRFTISRDNVKNTVYFQMNSRKPADTAVYYCATRWPNYGGYYYWGLGTQVTVSS” as the sequence, how does the “polyreactivity (PSR sort gate)” value read?
Answer: high polyreactivity

Question: With “PVQLQESGGGLMQAGGNLRLSCAASGYISTHYDMDWYRQAPGKERELVARIDDGAITNYADSVKGRFTISRDNAKNTVYLQMNSLKPEDTAVYYCAVYSGDDYYHDYWGQGTQVTVSS” as the sequence, how does the “polyreactivity (PSR sort gate)” value read?
Answer: low polyreactivity

Question: With “QVQLVESGGGLVQAGGSLRLSCAASGSTYAGYAMGWYRQAPGKERELVAAISRRGGSTYYADSVKGRFTISRDNAKNTVYLQMNSLKPEDTAVNYCNRDKYLRDPDYDYWGQGTQVTVSS” as the sequence, how does the “polyreactivity (PSR sort gate)” value read?
Answer: low polyreactivity
